How the values were obtained:
[1] = at 25° C.; cited from earlier work
[2] = Physicochemical properties of the liquid test formulations
[3] = Aerosol droplet size (mass median diameter, geometric standard deviation) by laser diffraction; format: physicochemical; settings: aerosol generator of Example 5 (LC Sprint Junior-like + PARI SINUS); Example 9

In the case of OC[C@H]1O[C@@H]2O[C@H]3[C@H](O)[C@@H](O)[C@@H](O[C@H]4[C@H](O)[C@@H](O)[C@@H](O[C@H]5[C@H](O)[C@@H](O)[C@@H](O[C@H]6[C@H](O)[C@@H](O)[C@@H](O[C@H]7[C@H](O)[C@@H](O)[C@@H](O[C@H]1[C@H](O)[C@H]2O)O[C@@H]7CO)O[C@@H]6CO)O[C@@H]5CO)O[C@@H]4CO)O[C@@H]3CO [α-cyclodextrin], the aqueous solubility [1] is listed as “about 145 mg/mL”.
For DNAse, the “dynamic viscosity of the solution” value [2] was 0.98 mPa·s, the osmolality of the solution [2] was 285 mOsm/kg and the “pH of the solution” value [2] was 6.5. For the same molecule, the “surface tension of the solution” value [2] was 72.1 mN/m and the mass median diameter of the aerosol [3] was 3.19 µm.

— patent US20070202051A1, “Aerosols for sinunasal drug delivery” (Pari GmbH, priority 2006, published 2007)
